Experimental data as given in patent publication US11332546B2, “Protease inhibitory antibodies and methods of use thereof” (The Regents of The University of California, priority 2019, dated 2022).

T1: BACE2 (Homo sapiens, UniProt Q9Y5Z0)
T1 sequence (Q9Y5Z0 63-518): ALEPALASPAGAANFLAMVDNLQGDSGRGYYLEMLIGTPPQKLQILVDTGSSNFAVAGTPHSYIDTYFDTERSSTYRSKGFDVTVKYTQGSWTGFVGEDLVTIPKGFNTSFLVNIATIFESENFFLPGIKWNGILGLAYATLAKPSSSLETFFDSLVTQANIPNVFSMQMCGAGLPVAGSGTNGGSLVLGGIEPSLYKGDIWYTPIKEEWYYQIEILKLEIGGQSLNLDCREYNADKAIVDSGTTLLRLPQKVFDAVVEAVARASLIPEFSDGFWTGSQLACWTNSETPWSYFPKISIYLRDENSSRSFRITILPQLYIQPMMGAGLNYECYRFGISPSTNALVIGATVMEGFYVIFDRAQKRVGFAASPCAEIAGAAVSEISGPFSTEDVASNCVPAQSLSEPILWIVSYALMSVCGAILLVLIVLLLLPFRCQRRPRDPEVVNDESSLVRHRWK


Tests used:
cdMMP-9 = experiment: FRET inhibition selectivity test, cdMMP-9 (Example 1); type: biochemical; settings: Fab at 500 nM
Experimental: (§1) For inhibition tests, 1 μM Fabs were 2-fold serially diluted into protease specific assay buffer and incubated with 1-10 nM proteases for 30 min at room temperature. […] Inhibition percentages at given concentrations were calculated by comparing the initial reaction rates in the presence or absence of inhibitor. IC50 was determined as the concentration that achieved 50% inhibition, and KI values were calculated using KI=IC50/(S/Km+1). Vmax and Km at various Fab concentrations were measured to determine the inhibition type. FRET inhibition assays were also used for selectivity tests of isolated Fabs with the relevant proteases.

cdMMP-14 = cdMMP-14 (Homo sapiens, UniProt P50281); experiment: In vitro proteolytic stability of Fab with its target protease (cdMMP-14); type: physicochemical; design: human MMP-14 (residue 114-320); hexahistidine (C); made in house; host or cells: E. coli (periplasm); settings: 1 μM Fab with 1 μM protease, 37° C., 24 hours, SDS-PAGE
BACE1 [1] = biological target: T2, BACE1 (Homo sapiens, UniProt P56817); experiment: FRET peptide inhibition assay, BACE1 (M-2420); type: biochemical; settings: IgG format; BACE-1, FRET peptide
T2 construct: human β-secretase 1 (BACE1, residue 46-457); made in house; host or cells: HEK293F (secreted, protein A purified)
Experimental: as §1

BACE2 = biological target: T1, BACE2; experiment: FRET inhibition selectivity test, BACE2; type: biochemical; settings: IgG
Experimental: as §1

BACE1 [2] = biological target: T2, BACE1; experiment: Amyloid precursor protein (MBP-APP571-696) degradation by BACE1; type: biochemical; settings: 1 μM IgG, 1 μM BACE1, 5 μM MBP-APP, 37° C., 24 h; 86% without IgG
Experimental: For amyloid precursor protein (APP) degradation studies, APP571-696 was cloned to the C-terminal of maltose binding protein (MBP) for E. coli expression and purified using amylose resin (NEB). 5 μM purified MBP-APP was incubated with 1 μM BACE1-Fc in the absence or presence of 1 μM IgG in BACE1 assay buffer at 37° C. for 24 h. In addition, APP571-696 was cloned to a pcDNA plasmid carrying a SPE leader for secretion expression. Transfected HEK293F cells were cultured in Expi293 media for 72 hrs with the presence of 14-800 nM purified IgG. The supernatants were clarified by centrifugation and 0.45 μm filtration, and produced Aβ1-40 was quantified by ELISA (Abcam).

T2 sequence (P56817 46-457): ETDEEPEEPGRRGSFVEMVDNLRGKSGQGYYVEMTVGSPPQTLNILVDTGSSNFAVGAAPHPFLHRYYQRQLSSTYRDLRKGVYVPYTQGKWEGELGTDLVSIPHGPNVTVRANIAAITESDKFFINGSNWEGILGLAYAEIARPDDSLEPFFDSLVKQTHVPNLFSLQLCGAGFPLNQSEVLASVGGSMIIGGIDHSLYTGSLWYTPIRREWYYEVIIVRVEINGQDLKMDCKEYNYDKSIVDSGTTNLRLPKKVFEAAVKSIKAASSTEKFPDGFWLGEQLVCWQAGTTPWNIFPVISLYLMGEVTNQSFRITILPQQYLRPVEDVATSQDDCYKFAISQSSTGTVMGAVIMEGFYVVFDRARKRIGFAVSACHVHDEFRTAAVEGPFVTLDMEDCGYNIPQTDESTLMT

Row | Inhibition Potency KI (associated IgG, in parentheses) (BACE1 [1]) [nM] | Inhibition of BACE2 (selectivity) (BACE2) | Cleavage of APP571-696 by BACE1 in presence of IgG (BACE1 [2]) [%] | Molecule | Inhibition of cdMMP-9 (selectivity) (cdMMP-9) | Fab remained intact after exposure to protease (cdMMP-14) [%]
1 |  |  |  | Fab 2B4: anti-MMP-14 antibody clone; VL SEQ ID NO:88, VH SEQ ID NO:1, CDR-H3 SEQ ID NO:4 (antibody, V domains shown) VH: EVQLVESGGGLVQPGGSLRLSCAASGFNLYSSYIHWVRQAPGKGLEWVASIYSSYSSTYYADSVKGRFTISADTSKNTAYLQMNSLRAEDTAVYYCARSDSAVYSVRRMGSSGLAAYAMDYWGQGTLVTVSSAS VL: DIQMTQSPSSLSASVGDRVTITCRASQSVSSAVAWYQQKPGKAPKLLIYSASSLYSGVPSRFSGSRSGTDFTLTISSLQPEDFATYYCQQYSYGYSSLITFGQGTKVEIKR | did not inhibit | 76
2 | 35 | but not BACE2 | 37 | IgG B1A4: anti-BACE1 inhibitory Fab B1A4 converted into IgG format (antibody, V domains shown) VH: EVQLVESGGGLVQPGGSLRLSCAASGFNISYSSIHWVRQAPGKGLEWVAYISPSSSYTSYADSVKGRFTISADTSKNTAYLQMNSLRAEDTAVYYCARHYYVSVGSGIDYWGQGTLVTVSSAS VL: DIQMTQSPSSLSASVGDRVTITCRASQSVSSAVAWYQQKPGKAPKLLIYSASSLYSGVPSRFSGSRSGTDFTPTISSLQPEDFATYYCQQASASPYALITFGQGTKVEIKR |  | 
